# According to the DeepSol protein solubility set:
# Experiment: soluble on expression in E. coli; label from the status in PepcDB or PDB records
row,Sequence,soluble on expression in E. coli
1,MALSILFLSIASLTLSSSLIIDHYFHLSFLRNPLKSQSGGGKMKPKVFITREIPEVGIKMLEDEFEVEVWGDEKEIPREILLKKVKEVDALVTMLSERIDKEVFENAPKLRIVANYAVGYDNIDIEEATKRGIYVTNTPDVLTDATADLAFALLLATARHVVKGDRFVRSGEWKKRGVAWHPKWFLGYDVYGKTIGIIGLGRIGQAIAKRAKGFNMRILYYSRTRKEEVERELNAEFKPLEDLLRESDFVVLAVPLTRETYHLINEERLKLMKKTAILINIARGKVVDTNALVKALKEGWIAGAGLDVFEEEPYYNEELFKLDNVVLTPHIGSASFGAREGMAELVAKNLIAFKRGEIPPTLVNREVIKIRKPGFE,soluble
2,MALSKLNHLYMAVVADHSKRPHHHGQLDGVEAVQLNNPTCGDVISLTVKFDEDKIEDIAFAGNGCTISTASSSMMTDAVIGKSKEEALALADIFSEMVQGQENPAQKELGEAELLAGVAKFPQRIKCSTLAWNALKEAIKRSANAQHLTDQNVKEGKNV,soluble
3,MALVVEDIVKNFGEGLSETKVLKGINFEVEQGEFVILNGASGSGKTTLLTILGGLLSQTSGTVLYNDAPLFDKQHRPSDLRLEDIGFIFQSSHLVPYLKVIEQLTLVGQEAGMTKQQSSTRAIQLLKNIGLEDRLNVYPHQLSGGEKQRVAIMRAFMNNPKIILADEPTASLDADRATKVVEMIRQQIKEQQMIGIMITHDRRLFEYADRVIELEDGKITD,not soluble
4,MAMDTIAFAYMGGKEYEWLFFEVYDRVRRFYRDVRLPINIVYAGKIILPPGTLIRVETASGFVNMYSFEAVVEALYGKLVEMRDDVNDDSITKIFGITTFPIGSRDRYFDIYKKYLGIQVNVGDYHVLALSIKPFFTENKYLFIERVFKGVLHEIGHLYGLSHCHEDCVMNPPKDIKDWDLRTPTYCNTCLRKLKNKEELMPKLQLLEHHHHHH,not soluble
5,MAMLAYQVSKSIEINKSQSEIIDYLKDFKNWPEWSPWIILEPSCELTYSDNQGHVGAGYQWNGQRIGTGAVVLESTQEHRLDMELHFFRPIKSHGKVTLIVTPSQDGCTVEWQMQSRVPWYLFFLKTMFKSMVEMDYDRGLKMLKSQLETGQILSQLSEIGTRHQDLIHYVGLQGSGTIPELGPIMKKQTQRLYELMQKESLPVSGELFCYYLSMDMKLGHFEFVTCLPVSEMVEVPNGFVFGTIPACETFVIEHKGDYQFLGNAWSLGMNLTRQNGIKVKSKPLGIERYLNNPNETPKAGLRTEVILFKKLEHHHHHH,soluble
6,MAMMAKHQAVKKIFDQIATKYDLIDTIISLGLDQHWRRVLVSSLGLREGMRCLDCGAGSGKVTELIYFRCGGCDVTALDITDSMFNPELKKYVKFVVSPAESLPFPDASFDRVSSAFLTRNLADIDRYFAEVYRVLRPGGVFVNMDIYNPTRPVISEFFSLYFYRFVPFFGNRATGSKNYTYLANTVKYFHRPSVISQKLADRGFSVEATDLFFGAVYLHRSVKPEGRGLEHHHHHH,not soluble
7,MAMPEKSSDVKPTEECGSFPEIIELNVGGQVYITRYPTLISIPGSRLWEMFSVKNPCSLIQDNKGRFFIDRDGFLFRYVLDYMRDMQVVLPDHFPECGRLHREAEYFKLPELAKMLAPKMNKLNSIGNDSCPIDLEELSPSIDTTFNFSSTNSIHISGPDNPMVLRAAPGSELKKAGFITIGYRGSYTLGRDSQADAKFRRVARIMVCGKISLAKEVFGDTLNESRDPDRPPERYTSRYYLKFTFLEQAFDKLADAGFHMVACNSTGTCTVTHDQTDDRIWTSYTEYVFYRE,soluble
8,MANFQATIHSRPLSPEFMTQARRPASTIQAVLTNLREKISLQSILPGARLTEEELVDNYSIPRAMAREVLAVLEDRGIVRRIPNKGAVVAHVDMQWVYHYYDAREALDGMMVRLAARQTRPEDWADLVEQFGEPFQKALETGDVDRLISLIETFRNRLQTAANNPVLSDLAERIHERIRVVRQRVVLLPGRAETMVADYRAVLAALARSDAEEAEQLMGILNRNNRAAIQKYERYVV,not soluble
9,MANHAKLVDQEIYRSPVDDFELNYQEYLNDDDDDKQEAPVAVSKAPKGKGSNHGLGCRMKGLFDGFGGTDLKTIMRHLRRRRPKSGQALTNFMLSGNMEKVVDQHVKDFVHHFGRINPENGRIMGALRGNDFFNFGGLHNNLGNTGKVYLDNLMKGKCGKKRKVHKFKPIVVEELDFGAPKPAVPATPKAPVAPVAPVIPAPAVTPQKPKVDEPTYADSVSDFGLDFETEREKCLRNKTLFEDPEFPATAASLYYRTPPRDRIIWKRPGEIIANPQLITQGESRFDVKQGALGDCWFLAALANITLYDALFYRIVPPNQSFTENYAGIFHFQFWHYGKWVDVVVDDRLPTVNNQLYYLHSADNTEFWSALVEKAYAKLHGGYENLDGGTTAEALEDFTGGLTEYFDLRKSEKAAVLAALVKGMEMGSLFGCSIDADANIKEAQLRNGLVCGHAYSITAIHSITYYGEDTTLLRLRNPWGNEKEWNGAWSDGSSEWSKIDEATKKQIDVQFARDGEFWMSFEDFFSNFTQMEVCNLTAEIFDEIAEMTGVNRATETVEEEHQWHEIMEDGEWSSKHSWRLQQQPIYLPQEPSILHFLHSTTILY,not soluble
10,MANLGETLKQLRKQRRWTQEQLAEQLNVSRSQISKWENGSLLPDVQSLEKLCQLFNISADFLLGGETRQRELLREVTDMYGTADVHETVLAALDYLLHNQEMSEAMYALAKLPDKKRKHVETMIMTIVKECSELI,not soluble
11,MANMLKIAMLSTGEEVLHGDIVDSNAAWLAREFYQHGFSLAKRATVGDSLPALVEELMMLSFNSDVVIVNGGLGPTSDDITAQAAAQAAEQPLVLNADWLSQLEAFFIGRGRAMPESNRKQAMLPANAEVIDNPIGTACGFKMQINDCWFYFTPGVPKEFYKMVSEQILPNLQRQFPSVQGQQCSRLYTFGTSESSISDKLDKMHLPEGYTLGYRSYLPFIEVKLFGPDQDQERRLSLLKIIHSHLEQYVVSIDEPMLTYLGHVMAEKGLSLALAEQATQGGLSSWLLSDPNVEALAGHSWILSHRVSSELAHQDPLAAAFALAGATKDKCGTQMALVTGALKEDHVSVALSTPNGEWGQTVKFVRRFSAQEQKEWIATLAADMLLRYLTGRSMFVGYSAVERVKEMHLPSSVLN,not soluble
12,MANNVTFWFDVSCPFCWITSRWIKEVEKVRDISVTWVPMSLSVLNDGRDELPQDYKDKMKANWGPARVFAAVATEQPDRVDALYTAMGTRIHNQGEGGKQGYAAYDAIIADALEDVGLPASYAAVANTDTWDNALAAFHATAMDAVGNDVGTPVVKLGDTAFFGPVLTRIPRGEEAGMLFDASFQLAAYPHFFEIKRTRTESPQFD,not soluble
13,MANQLSTQQVKRDITTDPTLLTGADIKKYFDPQNLLSEKQVGQALALCKGRNLNPFANEVYIVAYKNNSGTDFSLIVSKEAFMKRAERCEGYDGFEAGITVMRNGEMVEIEGSLKLPDDVLIGGWAIVYRKDRSHRYKVTVDFNEYVKLDKYGNPRSTWKSMPGTMIRKTALVQTLREAFPDELGNMYTDIDGGDTFDAIKDVTPQETQEEVRARKMAQIEQYKQEQTQKQTQKADTSYPVDEVSEHTDDPVQGELLDGELEY,not soluble
14,MANTPGGGALIVGIEDKTGRIIGTELDIDWLRQGIFTRIDVAPDVVAKRVLGQRVLAIYVAAAAEPIEDTSDRLRWRVGDSCRPVDLEHHHHHH,not soluble
15,MANVYDLANELERAVRALPEYQAVLTAKSAIESDADAQVLWQDFLATQSKVQEMMQSGQMPSQEEQDEMSKLGEKIESNDLLKVYFDQQQRLSVYMSDIEKIVFAPMQDLM,not soluble
16,MANYPKELPAQTQSRQPGIESEMNPSPVYEYEDYKGADKLKGKVALITGGDSGIGRAVSVAYAKEGADIAIVYKDEHEDAEETKKRVEQEGVKCLLIAGDVGEEEFCNEAVEKTVKELGGLDILVNNAGEQHPKESIKDITSEQLHRTFKTNFYSQFYLTKKAIDYLKPGSAIINTTSINPYVGNPTLIDYTATKGAINAFTRTMAQALVKDGIRVNAVAPGPIWTPLIPATFPEETVAQFGQDTPMGRPGQPVEHVGCYVLLASD,not soluble
17,MAPAKSPRAWQRMLSGRRLDLLDPSPLDVEIADIAHGLARVARWNGQTRGDHAFTVAQHCLIVETIFCRMCPGATPDEMQMALLHDAPEYVIGDMISPFKSVVGGGYKTVEKRLEAAVHLRFGLPPHASRELKDRIKKADTVAAFFEATELAGFSTAEAQKFFGLPRGITRDMFDIIPLPSTEAQRLFIARFEAIETLRVTRTGGAV,soluble
18,MAPEAQVSVQPNFQQDKFLGRWFSAGLASNSSWLREKKAALSMCKSVVAPATDGGLNLTSTFLRKNQCETRTMLLQPAGSLGSYSYRSPHWGSTYSVSVVETDYDQYALLYSQGSKGPGEDFRMATLYSRTQTPRAELKEKFTAFCKAQGFTEDTIVFLPQTDKCMTEQAHHHHHH,soluble
19,MAPLVAVVSSPRARLFACFLRLGTQQAGPLQLHTGACCTAKNHYEVLVLGGGAGGITMATRMKRRVGAENVAIVEPSERHFYQPIWTLVGAGAKELSLSVRSTLSVIPSGVQWIQDRVAELNPDENCIRTDSGKEISYRYLIIALGIQLDYEKIKGLPEGFAYPKIGSNYSVKTVEKTWKALQDFKEGNALFTFPNTPVKCAGAPQKIMYLSEAYFRKTGKRPKANIIFNTALGTIFGVKKYADALQEIIRERDVSVNYKHNLIEVRPDKQEAVFEILDKPGETHVIPYEMLHVTPPMSAPDVLKRSPVADSAGWVDVDKETLQHKKYPNVFGIGDCTNLPTSKTAAAVAAQSGILDRTMCLIMKNQRPIKKYDGYTSCPLVTGYNRVILAEFDYTAQPLETFPFDQSKERITMYLMKADMMPFLYWNMMLRGYWGGPAFLRKLFHLGMN,not soluble
20,MAPMFGVSFDFDPDFSLLSNKTHKSRNPKPPVKLLPYRHGSNTTSSDSDSYTSDLDLPTMRLHHQWLRSPSRSKMCCSTGSSSISQSIHRA,not soluble
21,MAPPSQDVLKEIFNLYDEELDGKIDGTQVGDVARAAGLKPTQAMVTKAAGQEFKRKGEKRLTFEEWLPMYEQLAKEKEQGTYADFYEGLKVFDKEETGKILAAELRHILLALGERLSADEADELLKGVEDGEGMVKYEDFIKKVLAGPFPDQD,not soluble
22,MAPPTFADLGKSAKDLFNKGYNFGFLKIDSTTRAGDNKEVEFKSAASHNIGSGKLGGNLDVKYKIPQYGITLTEKWNTENQLGTVIEVNEQFGRGLKVTLDSLYAPHAGKRSGKVKLDWALPTARVTADVGVTSAPVINAAGVFSRDGWLIGAAATFDSSSNKLAATSLAFGHSTPQYTLHSFVINSTDFGASLYHKVASNVEVGTQLGWKVGGNGADYALATKYAPSRDLTVRAKVNSSSQVAVAATHSLSPALKLTLSTQFNLAANDAHKFGLGLEFDPSN,not soluble
23,MAQAEEINVATVNNGDMIIMQKLSSAWEKETGNKINWIVLEENVLRERVTTDIATNGGQFDIMTIGGYEAPIWGKQGWLAPVDDLGDDYDYADLLDPIKKGLTVDGKLYAVPFYTESSFTLYRKDLFDAAGLKMPDNPTYDQIKDFAAKLTDKSKQQYGICLRGKPGWGENMAFLGTMINTYGGRWFDMDWKPQLTSAPWKKAIADYVALMTSYGPPGAAANGFNENQTLFSSGRCAMWIDATSAAGRVYDPKQSQVADKTGFTRAPVEVTPNGSSWSWSWNLAIPNSTKKLETAKSFVKWATSKAYVKTVGESEGWVAVPPGTRKSTYELPEYKKAAPFADTVLKAIMSADPSKPTKDPVPYTGVQFVAIPEFQSIGTVVGQQIAAALSGQQTVDAALEGAQKQVERDMTRAGYIK,not soluble
